From patent US20210309702A1

Target: signal regulatory protein a (SIRPa) (mouse) (UniProt P97797)
Assay: cell-based or functional assay

Sequence of UniProt P97797 (P97797 32-513): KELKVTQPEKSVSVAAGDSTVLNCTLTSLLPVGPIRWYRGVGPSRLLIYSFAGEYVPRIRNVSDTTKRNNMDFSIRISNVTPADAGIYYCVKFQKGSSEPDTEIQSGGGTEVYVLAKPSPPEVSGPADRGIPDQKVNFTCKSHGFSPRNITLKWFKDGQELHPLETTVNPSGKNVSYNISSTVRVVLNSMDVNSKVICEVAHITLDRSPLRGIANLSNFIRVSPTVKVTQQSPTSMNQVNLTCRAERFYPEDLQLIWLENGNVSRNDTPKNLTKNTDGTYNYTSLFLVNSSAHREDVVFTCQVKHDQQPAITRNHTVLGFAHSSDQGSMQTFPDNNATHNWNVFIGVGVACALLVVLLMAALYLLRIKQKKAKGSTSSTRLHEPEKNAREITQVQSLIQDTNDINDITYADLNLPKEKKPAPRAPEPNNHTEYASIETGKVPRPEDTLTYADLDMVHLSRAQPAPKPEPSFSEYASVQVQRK

Myc and GFP11-tagged mouse CD47 (CD47-Myc-GFP11) (from UniProt Q61735 19-303)
Gectosomes depleted by RAW 264.7 macrophages after 3 h (BlaM activity remaining in the media): 10 % depleted | Gectosomes depleted by RAW 264.7 macrophages after 6 h (BlaM activity remaining in the media): 50 % depleted
